The results in this text go back to article doi:10.1101/2025.07.29.667502, “Single-Molecule FRET Reveals Two T4 Phage MR Complex Exonuclease States Regulated by the Mre11 Dimer Interface” (bioRxiv, 2025).

The assay has as its target T1, T4 Rad50 (wild type) (bacteriophage T4, UniProt P04522 1-560).
T1 construct: Rad50 (gp46) of bacteriophage T4; the introduction says that the T4 complex is purified without truncation of Rad50's coiled-coil; also called WT Rad50; gp46; source: E. coli BL21 (DE3), purified (nickel column)
T1 sequence (looked up): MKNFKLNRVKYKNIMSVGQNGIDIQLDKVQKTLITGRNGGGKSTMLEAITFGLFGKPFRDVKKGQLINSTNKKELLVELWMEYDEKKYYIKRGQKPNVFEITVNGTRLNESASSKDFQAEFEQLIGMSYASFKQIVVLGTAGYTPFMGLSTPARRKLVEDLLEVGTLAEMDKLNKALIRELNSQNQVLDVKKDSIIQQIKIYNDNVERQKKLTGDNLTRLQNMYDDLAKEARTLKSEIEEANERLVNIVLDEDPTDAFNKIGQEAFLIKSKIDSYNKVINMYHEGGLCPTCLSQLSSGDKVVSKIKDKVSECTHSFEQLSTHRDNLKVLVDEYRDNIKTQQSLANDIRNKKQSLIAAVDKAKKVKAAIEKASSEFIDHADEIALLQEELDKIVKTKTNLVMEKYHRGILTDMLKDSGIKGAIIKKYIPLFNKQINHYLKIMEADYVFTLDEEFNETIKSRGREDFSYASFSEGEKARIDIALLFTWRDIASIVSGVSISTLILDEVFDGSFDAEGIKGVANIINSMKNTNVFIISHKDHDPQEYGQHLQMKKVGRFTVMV
Nature of the assay: negative-stain EM; WT T4-MR complex with ATPγS, in the absence of DNA. The following applies: both partners purified.

B1: T4 Mre11 (wild type) (enzyme, bacteriophage T4, UniProt P04521 1-339, looked up)
chain: MKILNLGDWHLGVKADDEWIRGIQIDGIKQAIEYSKKNGITTWIQYGDIFDVRKAITHKTMEFAREIVQTLDDAGITLHTIVGNHDLHYKNVMHPNASTELLAKYPNVKVYDKPTTVDFDGCLIDLIPWMCEENTGEILEHIKTSSASFCVGHWELNGFYFYKGMKSHGLEPDFLKTYKEVWSGHFHTISEAANVRYIGTPWTLTAGDENDPRGFWMFDTETERTEFIPNNTTWHRRIHYPFKGKIDYKDFTNLSVRVIVTEVDKNLTKFESELEKVVHSLRVVSKIDNSVESDDSEEVEVQSLQTLMEEYINAIPDITDSDREALIQYANQLYVEATQ
notes: Mre11 (gp47) of bacteriophage T4; Used together with WT Rad50 as the WT-MR complex; also called WT Mre11; gp47; source: E. coli BL21 (DE3), purified (chitin column)
For B1, the binding result was “binds”.
